Columns and labels:
[1] = tested on: Arabidopsis thaliana T1 plants; assay: Topramezone tolerance of transgenic Arabidopsis thaliana T1 plants (spray, bleached leaf area grade, damage score); format: in vivo; conditions: for Classification and statistics of the grade of pesticide damage Grade 0: number of plants at grade 0; for Classification and statistics of the grade of pesticide damage Grade 1: number of plants at grade 1; for Classification and statistics of the grade of pesticide damage Grade 2: number of plants at grade 2; for Classification and statistics of the grade of pesticide damage Grade 3: number of plants at grade 3; for Classification and statistics of the grade of pesticide damage: Grade 0 / Classification and statistics of the grade of pesticide damage: Grade 1 / Classification and statistics of the grade of pesticide damage: Grade 2 / Classification and statistics of the grade of pesticide damage: Grade 3: number of plants; for Grade 0 (classification and statistics of the grade of pesticide damage; number of plants) / Grade 1 (classification and statistics of the grade of pesticide damage; number of plants) / Grade 2 (classification and statistics of the grade of pesticide damage; number of plants) / Grade 3 (classification and statistics of the grade of pesticide damage; number of plants): 16 plants
Procedure, shortened: (§1)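 Read-out: per-plant damage grade 0–3 from proportion of bleached leaf area at 7 DAT (1 <50%, 2 >50%, 3 100%). Plants were T1 transformants, glufosinate-selected, plus wild-type CK, sprayed 18 days post-sowing. Rates: topramezone 25–200, isoxaflutole 35–280, mesotrione 52.5–420 g ai/ha.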

[2] = tested on: Arabidopsis thaliana T1 plants; assay: Isoxaflutole tolerance of transgenic Arabidopsis thaliana T1 plants (spray, bleached leaf area grade, damage score); format: in vivo; conditions: for Grade 0 (classification and statistics of the grade of pesticide damage; number of plants) / Grade 1 (classification and statistics of the grade of pesticide damage; number of plants) / Grade 2 (classification and statistics of the grade of pesticide damage; number of plants) / Grade 3 (classification and statistics of the grade of pesticide damage; number of plants): 16 plants; for Classification and statistics of the grade of pesticide damage: Grade 0 / Classification and statistics of the grade of pesticide damage: Grade 1 / Classification and statistics of the grade of pesticide damage: Grade 2 / Classification and statistics of the grade of pesticide damage: Grade 3: number of plants;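 as to Scores: Weighted damage index from 0 to 100 where higher means more damage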
Procedure, shortened: as §1

[3] = Table 10, topramezone 100 g ai/ha (4×)
[4] = Table 10, topramezone 200 g ai/ha (8×)
[5] = topramezone 100 g ai/ha (4×), 7 DAT, Table 1
[6] = topramezone 200 g ai/ha (8×), 7 DAT, Table 1
[7] = topramezone 100 g ai/ha (4x field concentration), Arabidopsis thaliana T1 plants
[8] = topramezone 200 g ai/ha (8x field concentration), Arabidopsis thaliana T1 plants
[9] = isoxaflutole 140 g ai/ha (2x field concentration), Arabidopsis thaliana T1 plants
[10] = isoxaflutole 140 g ai/ha (2×), 7 DAT, Table 2
[11] = isoxaflutole 140 g ai/ha, number of plants in grade
[12] = isoxaflutole 280 g ai/ha (4x field concentration), Arabidopsis thaliana T1 plants
[13] = isoxaflutole 280 g ai/ha (4×), 7 DAT, Table 2
[14] = isoxaflutole 280 g ai/ha, number of plants in grade

B1: AsHPPD-02: nucleotide sequence encoding Avena sativa wild-type HPPD; vector DBN11727 (nucleic acid)
DNA: ATGCCACCTACTCCAGCTACAGCTACTGGTGCTGCTGCTGCTGCCGTTACTCCTGAGCACGCTGCCAGGTCATTCCCCAGGGTGGTTCGCGTGAACCCCAGATCTGATAGGTTCCCAGTTCTGAGCTTCCACCATGTTGAGCTGTGGTGCGCTGATGCTGCTTCTGCTGCTGGCAGGTTCTCTTTCGCTCTTGGTGCTCCACTCGCTGCTAGATCTGATCTGTCTACAGGAAATAGCGCTCATGCCTCACTCCTGCTTCGCTCAGGTGCTTTGGCCTTCCTCTTCACCGCTCCATATGCTCCCCCACCTCAGGAGGCTGCTACTGCTGCTGCTACAGCCTCCATTCCAAGCTTCTCAGCTGATGCCGCTAGAACCTTCGCTGCTGCTCATGGACTTGCCGTGAGGTCTGTTGGTGTTCGCGTGGCTGATGCTGCTGAGGCTTTCAGAGTTTCCGTTGCCGGCGGAGCTAGGCCAGCTTTCGCTCCTGCTGATTTGGGACATGGTTTCGGCCTGGCTGAGGTTGAGCTTTACGGTGACGTGGTTCTCCGCTTCGTGTCTTACCCAGATGAGACTGACCTGCCTTTCCTTCCCGGCTTCGAGAGAGTTTCCTCTCCTGGTGCCGTGGATTACGGCCTGACAAGGTTCGACCACGTGGTTGGAAACGTTCCCGAGATGGCTCCAGTGATCGATTACATGAAGGGCTTCCTTGGATTCCATGAGTTCGCCGAGTTCACTGCTGAGGACGTGGGAACCACTGAGTCCGGTTTGAACTCTGTGGTTCTCGCCAACAATTCTGAGGCTGTTTTGCTCCCTCTGAATGAGCCTGTGCATGGAACCAAGAGGAGAAGCCAGATTCAAACTTACCTGGAGTACCACGGTGGCCCTGGAGTTCAGCATATCGCCCTTGCTTCTAATGATGTGTTGCGCACACTCAGAGAGATGCGCGCCAGAACCCCCATGGGAGGTTTCGAGTTCATGGCCCCACCACAGGCTAAGTACTACGAGGGCGTTAGAAGGATTGCTGGAGACGTGTTGAGCGAGGAGCAGATCAAGGAGTGCCAAGAGCTGGGTGTTCTTGTGGATAGGGATGACCAGGGCGTTCTGCTTCAAATTTTCACTAAGCCAGTGGGCGACCGCCCTACATTCTTCCTTGAGATGATTCAAAGAATCGGCTGCATGGAGAAGGATGAGGTTGGACAGGAGTACCAAAAGGGCGGATGCGGTGGCTTCGGAAAGGGTAACTTCAGCGAGTTGTTCAAGTCAATCGAGGACTACGAGAAGAGCCTCGAGGTGAAGCAGTCAGTGGTTGCCCAAAAGTCCTGA
modifications: AsHPPD-02 Nucleotide Sequence
notes: vector DBN11727
With B1 the Resistance evaluation [1, 3] was “Non-resistant”, the “Classification and statistics of the grade of pesticide damage Grade 0” value [1, 3] was 0 and the “Classification and statistics of the grade of pesticide damage Grade 1” value [1, 3] was 0. The “Classification and statistics of the grade of pesticide damage Grade 2” value [1, 3] was 4, the “Classification and statistics of the grade of pesticide damage Grade 3” value [1, 3] was 12 and the Scores ([1]; Table 10, topramezone 100 g ai/ha (4×), pesticide damage score) was 92. The Resistance evaluation [1, 4] was “Non-resistant”, the “Classification and statistics of the grade of pesticide damage Grade 0” value [1, 4] was 0 and the “Classification and statistics of the grade of pesticide damage Grade 1” value [1, 4] was 0. For the same molecule, the “Classification and statistics of the grade of pesticide damage Grade 2” value [1, 4] was 0, the “Classification and statistics of the grade of pesticide damage Grade 3” value [1, 4] was 16 and the Scores ([1]; Table 10, topramezone 200 g ai/ha (8×), pesticide damage score) was 100. For the same molecule, the “tolerance to topramezone (in words)” value ([1]; in vivo) was “no tolerance”, the “Classification and statistics of the grade of pesticide damage: Grade 0” value [1, 5] was 0 and the “Classification and statistics of the grade of pesticide damage: Grade 1” value [1, 5] was 0. For the same molecule, the “Classification and statistics of the grade of pesticide damage: Grade 2” value [1, 5] was 4, the “Classification and statistics of the grade of pesticide damage: Grade 3” value [1, 5] was 12 and the “Classification and statistics of the grade of pesticide damage: Grade 0” value [1, 6] was 0. The “Classification and statistics of the grade of pesticide damage: Grade 1” value [1, 6] was 0, the “Classification and statistics of the grade of pesticide damage: Grade 2” value [1, 6] was 0 and the “Classification and statistics of the grade of pesticide damage: Grade 3” value [1, 6] was 16. For the same molecule, the Scores ([1]; pesticide damage score 0-100, topramezone 100 g ai/ha (4×), 7 DAT, Table 1) was 92, the Scores ([1]; pesticide damage score 0-100, topramezone 200 g ai/ha (8×), 7 DAT, Table 1) was 100 and the Resistance evaluation [1, 7] was “Non-resistant”. The Scores [1, 7] was 92, the “Grade 0 (classification and statistics of the grade of pesticide damage; number of plants)” value [1, 7] was 0 and the “Grade 1 (classification and statistics of the grade of pesticide damage; number of plants)” value [1, 7] was 0. The “Grade 2 (classification and statistics of the grade of pesticide damage; number of plants)” value [1, 7] was 4, the “Grade 3 (classification and statistics of the grade of pesticide damage; number of plants)” value [1, 7] was 12 and the Resistance evaluation [1, 5] was “non-resistant (non-resistant plants (scores 68-100))”. For the same molecule, the Resistance evaluation [1, 8] was “Non-resistant”, the Scores [1, 8] was 100 and the “Grade 0 (classification and statistics of the grade of pesticide damage; number of plants)” value [1, 8] was 0. The “Grade 1 (classification and statistics of the grade of pesticide damage; number of plants)” value [1, 8] was 0, the “Grade 2 (classification and statistics of the grade of pesticide damage; number of plants)” value [1, 8] was 0 and the “Grade 3 (classification and statistics of the grade of pesticide damage; number of plants)” value [1, 8] was 16. The Resistance evaluation [1, 6] was “non-resistant (non-resistant plants (scores 68-100))”, the Resistance evaluation ([2]; Table 11, isoxaflutole 140 g ai/ha (2×)) was “Non-resistant” and the “Classification and statistics of the grade of pesticide damage Grade 0” value ([2]; Table 11, isoxaflutole 140 g ai/ha (2×), number of plants at grade 0) was 0. For the same molecule, the “Classification and statistics of the grade of pesticide damage Grade 1” value ([2]; Table 11, isoxaflutole 140 g ai/ha (2×), number of plants at grade 1) was 1, the “Classification and statistics of the grade of pesticide damage Grade 2” value ([2]; Table 11, isoxaflutole 140 g ai/ha (2×), number of plants at grade 2) was 4 and the “Classification and statistics of the grade of pesticide damage Grade 3” value ([2]; Table 11, isoxaflutole 140 g ai/ha (2×), number of plants at grade 3) was 11. For the same molecule, the Scores ([2]; Table 11, isoxaflutole 140 g ai/ha (2×), pesticide damage score) was 88, the Resistance evaluation ([2]; Table 11, isoxaflutole 280 g ai/ha (4×)) was “Non-resistant” and the “Classification and statistics of the grade of pesticide damage Grade 0” value ([2]; Table 11, isoxaflutole 280 g ai/ha (4×), number of plants at grade 0) was 0. For the same molecule, the “Classification and statistics of the grade of pesticide damage Grade 1” value ([2]; Table 11, isoxaflutole 280 g ai/ha (4×), number of plants at grade 1) was 0, the “Classification and statistics of the grade of pesticide damage Grade 2” value ([2]; Table 11, isoxaflutole 280 g ai/ha (4×), number of plants at grade 2) was 0 and the “Classification and statistics of the grade of pesticide damage Grade 3” value ([2]; Table 11, isoxaflutole 280 g ai/ha (4×), number of plants at grade 3) was 16. For the same molecule, the Scores ([2]; Table 11, isoxaflutole 280 g ai/ha (4×), pesticide damage score) was 100, the “tolerance to isoxaflutole (in words)” value ([2]; in vivo) was “no tolerance” and the Resistance evaluation ([2]; isoxaflutole 140 g ai/ha) was “Non-resistant”. For the same molecule, the Scores ([2]; isoxaflutole 140 g ai/ha) was 88, the Resistance evaluation [2, 9] was “Non-resistant” and the Scores [2, 9] was 88. The “Grade 0 (classification and statistics of the grade of pesticide damage; number of plants)” value [2, 9] was 0, the “Grade 1 (classification and statistics of the grade of pesticide damage; number of plants)” value [2, 9] was 1 and the “Grade 2 (classification and statistics of the grade of pesticide damage; number of plants)” value [2, 9] was 4. For the same molecule, the “Grade 3 (classification and statistics of the grade of pesticide damage; number of plants)” value [2, 9] was 11, the Resistance evaluation [2, 10] was “non-resistant (non-resistant plants (scores 68-100))” and the “Classification and statistics of the grade of pesticide damage Grade 0” value [2, 11] was 0. The “Classification and statistics of the grade of pesticide damage Grade 1” value [2, 11] was 1, the “Classification and statistics of the grade of pesticide damage Grade 2” value [2, 11] was 4 and the “Classification and statistics of the grade of pesticide damage Grade 3” value [2, 11] was 11. The Resistance evaluation ([2]; isoxaflutole 280 g ai/ha) was “Non-resistant”, the Scores ([2]; isoxaflutole 280 g ai/ha) was 100 and the Resistance evaluation [2, 12] was “Non-resistant”. For the same molecule, the Scores [2, 12] was 100, the “Grade 0 (classification and statistics of the grade of pesticide damage; number of plants)” value [2, 12] was 0 and the “Grade 1 (classification and statistics of the grade of pesticide damage; number of plants)” value [2, 12] was 0. For the same molecule, the “Grade 2 (classification and statistics of the grade of pesticide damage; number of plants)” value [2, 12] was 0, the “Grade 3 (classification and statistics of the grade of pesticide damage; number of plants)” value [2, 12] was 16 and the Resistance evaluation [2, 13] was “non-resistant (non-resistant plants (scores 68-100))”. The “Classification and statistics of the grade of pesticide damage Grade 0” value [2, 14] was 0, the “Classification and statistics of the grade of pesticide damage Grade 1” value [2, 14] was 0 and the “Classification and statistics of the grade of pesticide damage Grade 2” value [2, 14] was 0. The “Classification and statistics of the grade of pesticide damage Grade 3” value [2, 14] was 16, the “Classification and statistics of the grade of pesticide damage: Grade 0” value [2, 10] was 0 and the “Classification and statistics of the grade of pesticide damage: Grade 1” value [2, 10] was 1. The “Classification and statistics of the grade of pesticide damage: Grade 2” value [2, 10] was 4, the “Classification and statistics of the grade of pesticide damage: Grade 3” value [2, 10] was 11 and the “Classification and statistics of the grade of pesticide damage: Grade 0” value [2, 13] was 0. The “Classification and statistics of the grade of pesticide damage: Grade 1” value [2, 13] was 0, the “Classification and statistics of the grade of pesticide damage: Grade 2” value [2, 13] was 0 and the “Classification and statistics of the grade of pesticide damage: Grade 3” value [2, 13] was 16. For the same molecule, the Scores ([2]; pesticide damage score 0-100, isoxaflutole 140 g ai/ha (2×), 7 DAT, Table 2) was 88 and the Scores ([2]; pesticide damage score 0-100, isoxaflutole 280 g ai/ha (4×), 7 DAT, Table 2) was 100.
